PMC3314626, “Crystal Structures of the Tetratricopeptide Repeat Domains of Kinesin Light Chains: Insight into Cargo Recognition Mechanisms” (PLoS ONE, 2012)

What was measured:
Assay in all cases: ITC; peptide (1-3 mM) in the syringe injected into 60-130 uM KLC1-TPR or KLC2-TPR (or mutant) in the cell; 25 C; 20 mM Bis-Tris pH 6.5, 500 mM NaCl, 0.5 mM TCEP; one-site binding model
[1] = biological target: KLC1-TPR N301A mutant (human) (UniProt Q07866)
[2] = biological target: KLC1-TPR N343S mutant (human) (UniProt Q07866)
[3] = biological target: KLC1 TPR domain (kinesin light chain 1 tetratricopeptide repeat domain) (human) (UniProt Q07866)

Question: What does the source list for Ac-EMDWDDSALT-OH [ALC1 peptide (alcadein-1)]?
Answer: Kd [1]: 179 µM; dH [1]: -1.2 kcal/mol; stoichiometry N [1]: 1.02; Kd [2]: 44.3 µM; dH [2]: -1.7 kcal/mol; stoichiometry N [2]: 2.13; Kd [3]: 50.3 µM; dH [3]: -2.5 kcal/mol; stoichiometry N [3]: 1.85

Question: Which Kd [3] does the source give for Ac-EYTCPTEDIYLE-OH [JIP1 peptide (C-terminal residues of JNK-interacting protein 1)] here?
Answer: Its Kd is 9.4 µM.

Question: And the dH [3]?
Answer: Its dH is -1.52 kcal/mol.

Question: What about the stoichiometry N [3] of the same binder?
Answer: Its stoichiometry N is 1.02.
